Assay results as given in IntAct's records for PubMed 15509585.

B1: Thioredoxin-like protein slr1139 (Synechocystis sp. (strain PCC 6803 / Kazusa)), P73263 (parent)
chain: MSLLEITDAEFEQETQGQTKPVLVYFWASWCGPCRLMAPAIQAIAKDYGDKLKVLKLEVDPNPAAVAQCKVEGVPALRLFKNNELVMTHEGAIAKPKLLELLKEELDFI
partner: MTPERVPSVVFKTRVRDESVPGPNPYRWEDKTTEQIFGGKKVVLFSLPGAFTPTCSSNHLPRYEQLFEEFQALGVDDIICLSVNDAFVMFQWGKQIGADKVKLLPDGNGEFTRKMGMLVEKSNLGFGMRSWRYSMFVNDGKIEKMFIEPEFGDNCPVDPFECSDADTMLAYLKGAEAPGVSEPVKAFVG
B2: Thioredoxin-like protein slr1139 (Synechocystis sp. (strain PCC 6803 / Kazusa)), P73263 (parent)
chain: B1 chain
partner: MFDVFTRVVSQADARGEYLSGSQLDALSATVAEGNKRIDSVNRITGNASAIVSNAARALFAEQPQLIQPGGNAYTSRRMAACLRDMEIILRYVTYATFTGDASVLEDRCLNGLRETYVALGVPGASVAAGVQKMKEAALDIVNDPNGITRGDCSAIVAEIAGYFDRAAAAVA
B3: Thioredoxin-like protein slr1139 (Synechocystis sp. (strain PCC 6803 / Kazusa)), P73263 (parent)
chain: B1 chain
partner: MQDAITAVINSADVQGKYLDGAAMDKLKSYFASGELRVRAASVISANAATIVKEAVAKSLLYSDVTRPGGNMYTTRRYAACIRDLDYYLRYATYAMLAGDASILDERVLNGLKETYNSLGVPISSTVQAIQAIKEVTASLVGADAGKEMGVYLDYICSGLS

Variants of: B1
Details: with prx5_syny3 prx5, P73728

Variant | effect of a mutation on the interaction
C34S | increasing interaction

Variants of: B2
Details: with phcb_syny3 cpcB

Variant | effect of a mutation on the interaction
C34S | increasing interaction

Variants of: B3
Details: with apcb_syny3 apcB

Variant | effect of a mutation on the interaction
C34S | increasing interaction
